Results published in patent US20100029573A1 (IMMATICS BIOTECHNOLOGIES, published 2010).

What was measured:
[1] = molecular target: MHC-A*02 tetramers complexed with the peptide … (human); assay: double tetramer staining, flow cytometry
HLA-B*0702 [2] = molecular target: T1, HLA-B*0702 (human); assay: recombinant B*0702 complexed with peptide, tetramer and microspheres
T1 construct: MHC class I molecule without the peptide
Text: Predetermined avidity of human CD8 T cells expanded on calibrated MHC/anti-CD28-coated microspheres. J. Immunol. […] Each dot represents the percentage of tetramer+among CD8+ lymphocytes from one well.

HLA-B*0702 [3] = molecular target: T1, HLA-B*0702; assay: peptide-pulsed KM22 cells; recombinant B*0702 tetramers made with the peptide
Experimental: For the CTL assays, KM22 and JY tumor cell lines were used as target cells. Peptide-pulsed cells were pulsed with 50 μg/mL peptide for 2 hours. […] Then, 10⁴ cells/well were added to a 96-well round bottom plate. Various numbers of CTL were added to obtain an end volume of 200 μL, with subsequent incubation for 4 hrs at 37° C. Then, supernatants (500 μL/well) were harvested and counted in a beta-plate counter. Specific lysis was calculated in percent as follows: 100×(experimental release−spontaneous release/maximum release−spontaneous release). Each, spontaneous and maximum release were determined in presence of either medium or 2% Triton X-100.
Cell lines KM22 and JY are HLA-B*07 positive.

## CD8-positive T cells stimulated with melan-A peptide/MHC-A*02 tetramer complexes
[1]
  percent of stimulated cells binding the tetramer: 19.3%

## CD8-positive T cells stimulated with RGS-5 peptide …/MHC-A*02 tetramer complexes
[1]
  percent of stimulated cells binding the tetramer: 8%

## IARNLTQQL (also called ADFP)
HLA-B*0702 [2]
  binding result: binds

## FPSLREAAL (also called MAGEA1; MAGE-1)
HLA-B*0702 [3]
  binding result: binds
